Measurements from US20120213799A1 (published 2012).

T1: recombinant human FKN (R&D Systems, Catalog No. 362-CX/CF) (UniProt P78423 25-100)
T1 chain: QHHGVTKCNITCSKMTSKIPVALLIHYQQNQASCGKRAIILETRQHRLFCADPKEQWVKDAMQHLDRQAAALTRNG

T2: soluble hFKN-SEAP (extracellular region of human fractalkine conjugated to secreted alkaline phosphatase) (UniProt P78423 25-341)
T2 chain: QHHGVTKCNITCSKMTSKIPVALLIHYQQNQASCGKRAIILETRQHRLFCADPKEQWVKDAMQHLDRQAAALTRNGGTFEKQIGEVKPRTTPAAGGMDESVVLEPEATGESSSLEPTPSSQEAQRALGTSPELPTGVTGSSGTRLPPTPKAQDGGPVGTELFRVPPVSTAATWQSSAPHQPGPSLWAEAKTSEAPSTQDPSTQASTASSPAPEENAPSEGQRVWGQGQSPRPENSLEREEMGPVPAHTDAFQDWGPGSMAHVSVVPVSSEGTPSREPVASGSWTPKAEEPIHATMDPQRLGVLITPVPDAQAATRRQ


These binders were tested against cynomolgus FKN-SEAP (human;) (assay: BIACORE).

Binder | Kd
H3-2L4 (antibody, V domains shown) VH: QVQLVQSGAEVKKPGASVKVSCKASGYTFTNYYIHWVKQAPGQGLEWIGWIYPGDGSPKFNERFKGRTTLTADKSTNTAYMLLSSLRSEDTAVYFCATGPTDGDYFDYWGQGTTVTVSS VL: DIQMTQSPSSLSASVGDRVTITCRASGNIHNFLAWYQQKPGKAPKLLIYNEKTLADGVPSRFSGSGSGTDYTLTISSLQPEDFATYFCQQFWSTPYTFGGGTKVEIK | 7.71 pM
HK2L4 (antibody, V domains shown) VH: QVQLVQSGAEVKKPGASVKVSCKASGYTFTNYYIHWVRQAPGQGLEWIGWIYPGDGSPKFNERFKGRTTMTADTSTSTAYMELSSLRSEDTAVYFCARGPTDGDYFDYWGQGTTVTVSS VL: DIQMTQSPSSLSASVGDRVTITCRASGNIHNFLAWYQQKPGKAPKLLIYNEKTLADGVPSRFSGSGSGTDYTLTISSLQPEDFATYFCQQFWSTPYTFGGGTKVEIK | 26 pM
H3-2L2 (antibody, V domains shown) VH: QVQLVQSGAEVKKPGASVKVSCKASGYTFTNYYIHWVKQAPGQGLEWIGWIYPGDGSPKFNERFKGRTTLTADKSTNTAYMLLSSLRSEDTAVYFCATGPTDGDYFDYWGQGTTVTVSS VL: DIQMTQSPSSLSASVGDRVTITCRASGNIHNFLAWYQQKPGKAPKFLVYNEKTLADGVPSRFSGSGSGTQYTLTISSLQPEDFATYFCQQFWSTPYTFGGGTKVEIK | 6.75 pM
H3L2 (antibody, V domains shown) VH: QVQLVQSGAEVKKPGASVKVSCKASGYTFTNYYIHWVKQAPGQGLEWIGWIYPGDGSPKFNERFKGRTTLTADKSTNTAYMLLSSLRSDDTAVYFCATGPTDGDYFDYWGQGTTVTVSS VL: DIQMTQSPSSLSASVGDRVTITCRASGNIHNFLAWYQQKPGKAPKFLVYNEKTLADGVPSRFSGSGSGTQYTLTISSLQPEDFATYFCQQFWSTPYTFGGGTKVEIK | 9.62 pM
H3L4 (antibody, V domains shown) VH: QVQLVQSGAEVKKPGASVKVSCKASGYTFTNYYIHWVKQAPGQGLEWIGWIYPGDGSPKFNERFKGRTTLTADKSTNTAYMLLSSLRSDDTAVYFCATGPTDGDYFDYWGQGTTVTVSS VL: DIQMTQSPSSLSASVGDRVTITCRASGNIHNFLAWYQQKPGKAPKLLIYNEKTLADGVPSRFSGSGSGTDYTLTISSLQPEDFATYFCQQFWSTPYTFGGGTKVEIK | 12 pM
chimeric (antibody, V domains shown) VH: QVQLQQSGPELVKPGASVKMSCKASGYTFTNYYIHWVKQRPGQGLEWIGWIYPGDGSPKFNERFKGKTTLTADKSSNTAYMLLSSLTSEDSAIYFCATGPTDGDYFDYWGQGTTLTVSS VL: DIQMTQSPASLSASVGETVTITCRASGNIHNFLAWYQQKQGKSPQFLVYNEKTLADGVPSRFSGSGSGTQYSLKINSLQPEDFGIYFCQQFWSTPYTFGGGTKLEIK | 6.62 pM

Molecular target: T1, recombinant human FKN (R&D Systems, …)
Experiment: BIACORE

Binder | Kd
mouse anti-hFKN mAb clone 3A5-2 (antibody, V domains shown) VH: QVQLQQSGPELVKPGASVKMSCKASGYTFTNYYIHWVKQRPGQGLEWIGWIYPGDGSPKFNERFKGKTTLTADKSSNTAYMLLSSLTSEDSAIYFCATGPTDGDYFDYWGQGTTLTVSS VL: DIQMTQSPASLSASVGETVTITCRASGNIHNFLAWYQQKQGKSPQFLVYNEKTLADGVPSRFSGSGSGTQYSLKINSLQPEDFGIYFCQQFWSTPYTFGGGTKLEIK | 600 pM

Molecular target: T2, soluble hFKN-SEAP (extracellular region …)
Experiment: BIACORE

Binder | Kd
humanized anti-hFKN mAb H3L2-IgG2 (antibody, V domains shown) VH: QVQLVQSGAEVKKPGASVKVSCKASGYTFTNYYIHWVKQAPGQGLEWIGWIYPGDGSPKFNERFKGRTTLTADKSTNTAYMLLSSLRSDDTAVYFCATGPTDGDYFDYWGQGTTVTVSS VL: DIQMTQSPSSLSASVGDRVTITCRASGNIHNFLAWYQQKPGKAPKFLVYNEKTLADGVPSRFSGSGSGTQYTLTISSLQPEDFATYFCQQFWSTPYTFGGGTKVEIK | 8.84 pM
humanized anti-hFKN mAb H3-L4-IgG2 (antibody, V domains shown) VH: QVQLVQSGAEVKKPGASVKVSCKASGYTFTNYYIHWVKQAPGQGLEWIGWIYPGDGSPKFNERFKGRTTLTADKSTNTAYMLLSSLRSDDTAVYFCATGPTDGDYFDYWGQGTTVTVSS VL: DIQMTQSPSSLSASVGDRVTITCRASGNIHNFLAWYQQKPGKAPKLLIYNEKTLADGVPSRFSGSGSGTDYTLTISSLQPEDFATYFCQQFWSTPYTFGGGTKVEIK | 6.43 pM
humanized anti-hFKN mAb H3-2L4-IgG2 (antibody, V domains shown) VH: QVQLVQSGAEVKKPGASVKVSCKASGYTFTNYYIHWVKQAPGQGLEWIGWIYPGDGSPKFNERFKGRTTLTADKSTNTAYMLLSSLRSEDTAVYFCATGPTDGDYFDYWGQGTTVTVSS VL: DIQMTQSPSSLSASVGDRVTITCRASGNIHNFLAWYQQKPGKAPKLLIYNEKTLADGVPSRFSGSGSGTDYTLTISSLQPEDFATYFCQQFWSTPYTFGGGTKVEIK | 5.34 pM
humanized anti-hFKN mAb H3-2L2-IgG2 (antibody, V domains shown) VH: QVQLVQSGAEVKKPGASVKVSCKASGYTFTNYYIHWVKQAPGQGLEWIGWIYPGDGSPKFNERFKGRTTLTADKSTNTAYMLLSSLRSEDTAVYFCATGPTDGDYFDYWGQGTTVTVSS VL: DIQMTQSPSSLSASVGDRVTITCRASGNIHNFLAWYQQKPGKAPKFLVYNEKTLADGVPSRFSGSGSGTQYTLTISSLQPEDFATYFCQQFWSTPYTFGGGTKVEIK | 5.92 pM
mouse-human chimeric 3A5-2 mAb (antibody, V domains shown) VH: QVQLQQSGPELVKPGASVKMSCKASGYTFTNYYIHWVKQRPGQGLEWIGWIYPGDGSPKFNERFKGKTTLTADKSSNTAYMLLSSLTSEDSAIYFCATGPTDGDYFDYWGQGTTLTVSS VL: DIQMTQSPASLSASVGETVTITCRASGNIHNFLAWYQQKQGKSPQFLVYNEKTLADGVPSRFSGSGSGTQYSLKINSLQPEDFGIYFCQQFWSTPYTFGGGTKLEIK | 7.13 pM
